For orientation: Kd means the constant that tells how readily two partners part at equilibrium.

The source of these data is paper PMC12607895 (2025).

First the molecules themselves.
B6: CD46 (receptor)
chain: CEEPPTFEAMELIGKPKPYYEIGERVDYKCKKGYFYIPPLATHTICDRNHTWLPVSDDACYRETCPYIRDPLNGQAVPANGTYEFGYQMHFICNEGYYLIGEEILYCELKGSVAIWSGKPPICEKVLCTPPPKIKNGKHTFSEVEVFEYLDAVTYSCDPAPGPDPFSLIGESTIYCGDNSVWSRAAPECKVVKCRFPVVENGKQISGFGKKFYYKATVMFECDKGFYLDGSDTIVCDSNSTWDPPVPKCLKVLPPSSTKPPALSHSVSTSSTTKSPASSASGPRPTYKPPVSNYPGYPKPEEGILDSLD

Among the targets are HAdV-D37 hexon (human adenovirus D37 (HAdV-D37)); HAdV-D56 fiber knob (human adenovirus D56 (HAdV-D56)); HAdV-D113 hexon (human adenovirus D113 (HAdV-D113)); HAdV-D113 fiber knob (human adenovirus D113 (HAdV-D113)); HAdV-B11 hexon (human adenovirus B11 (HAdV-B11)).
Experiment in all cases: SPR
The test “CD46” concerns the target B6.

B1: HAdV-D37 fiber knob (domain or fragment)
chain: WNPKYDTRTLWTTPDTSPNCTIAQDKDSKLTLVLTKCGSQILANVSLIVVAGKYHIINNKTNPKIKSFTIKLLFNKNGVLLDNSNLGKAYWNFRSGNSNVSTAYEKAIGFMPNLVAYPKPSNSKKYARDIVYGTIYLGGKPDQPAVIKTTFNQETGCEYSITFNFSWSKTYENVEFETTSFTFSYIAQE
modifications: Source, isoform and limits not given; soluble extracellular domain assumed; N/O-glycosylated; amine-coupled to CM5 chip
Consider B1, for which the Kd with CD46 came to 2700 nM.

B2: HAdV-D26 hexon (natural protein)
chain: ATPSMMPQWAYMHIAGQDASEYLSPGLVQFARATDTYFSLGNKFRNPTVAPTHDVTTDRSQRLTLRFVPVDREDTTYSYKARFTLAVGDNRVLDMASTYFDIRGVLDRGPSFKPYSGTAYNSLAPKGAPNPSQWETKEKQGTTGGVQQEKDVTKTFGVAATGGINITNQGLLLGTDETAENGKKDIYADKTFQPEPQVGEENWQENEAFYGGRALKKDTKMKPCYGSFARPTNEKGGQAKFKPVNEGEQPKDLDIDFAYFDVPGGSPPAGGSGEEYKADIILYTENVNLETPDTHVVYKPGTSDNSSEINLVQQSMPNRPNYIGFRDNFVGLMYYNSTGNMGVLAGQASQLNAVVDLQDRNTELSYQLLLDSLGDRTRYFSMWNSAVDSYDPDVRIIENHGVEDELPNYCFPLNGTGTNSTYQGVKITNGNDGAEESEWEKDDAISRQNQICKGNVYAMEINLQANLWKSFLYSNVALYLPDSYKYTPANVKLPANTNTYEYMNGRVVAPSLVDAYINIGARWSLDPMDNVNPFNHHRNAGLRYRSMLLGNGRYVPFHIQVPQKFFAIKNLLLLPGSYTYEWNFRKDVNMILQSSLGNDLRVDGASVRFDSVNLYATFFPMAHNTASTLEAMLRNDTNDQSFNDYLSAANMLYPIPAKATNVPISIPSRNWAAFRGWSFTRLKTKETPSLGSGFDPYFVYSGSIPYLDGTFYLNHTFKKVSIMFDSSVSWPGNDRLLTPNEFEIKRSVDGEGYNVAQCNMTKDWFLVQMLSHYNIGYQGFHVPEGYKDRMYSFFRNFQPMSRQVVDEINYKDYKAVTLPFQHNNSGFTGYLAPTMRQGQPYPANFPYPLIGQTAVPSVTQKKFLCDRVMWRIPFSSNFMSMGALTDLGQNMLYANSAHALDMTFEVDPMDEPTLLYLLFEVFDVVRVHQPHRGVIEAVYLRTPFSAGNATT
modifications: Source, isoform and limits not given; soluble extracellular domain assumed; N/O-glycosylated; amine-coupled to CM5 chip
In the test with CD46, B2 had a dissociation constant (Kd) of 4240 nM.

B3: HAdV-C5 fiber knob (domain or fragment)
chain: TGAITVGNKNNDKLTLWTTPAPSPNCRLNAEKDAKLTLVLTKCGSQILATVSVLAVKGSLAPISGTVQSAHLIIRFDENGVLLNNSFLDPEYWNFRNGDLTEGTAYTNAVGFMPNLSAYPKSHGKTAKSNIVSQVYLNGDKTKPVTLTITLNGTQETGDTTPSAYSMSFSWDWSGHNYINEIFATSSYTFSYIAQE
modifications: trimer; limits by convention of the Ad5 knob structure 1KNB Source, isoform and limits not given; soluble extracellular domain assumed; N/O-glycosylated; amine-coupled to CM5 chip
Take B3: the Kd with CD46 is 130 nM.

B4: HAdV-B11 fiber knob (domain or fragment)
chain: GLTFNSNNICIDDNINTLWTGVNPTEANCQIMNSSESNDCKLILTLVKTGALVTAFVYVIGVSNNFNMLTTHRNINFTAELFFDSTGNLLTRLSSLKTPLNHKSGQNMATGAITNAKGFMPSTTAYPFNDNSREKENYIYGTCYYTASDRTAFPIDISVMLNRRAINDETSYCIRITWSWNTGDAPEVQTSATTLVTSPFTFYYIREDD
modifications: trimer; knob limits by convention (last shaft residues to C-terminus) Source, isoform and limits not given; soluble extracellular domain assumed; N/O-glycosylated; amine-coupled to CM5 chip
B4: the dissociation constant Kd with CD46 was determined as 1.14 nM.

B5: HAdV-D56 hexon (natural protein)
chain: ATPSMMPQWAYMHIAGQDASEYLSPGLVQFARATDTYFSLGNKFRNPTVAPTHDVTTDRSQRLTLRFVPVDREDTTYSYKARFTLAVGDNRVLDMASTYFDIRGVLDRGPSFKPYSGTAYNSLAPKGAPNSSQWEQKKANAGEQKETHTYGVAPMGGENITISGLQIGTDTTNGKQDPIYANKLYQPEPQVGEENWQETEAFYGGRALKKETKMKPCYGSFARPTNEKGGQAKLRDPEKSQEDFDIDLAFFDTPGGTLTGGGTEYKADIVMCTENVNLETPDTHVVYKPGKDDDSSEINLVQQSMPNRPNYIGFRDNFVGLMYYNSTGNMGVLAGQASQLNAVVDLQDRNTELSYQLLLDSLGDRTRYFSMWNSAVDSYDPDVRIIENHGVEDELPNYCFPLDGSGTNAAYEGVKVKNGQDGDQESEWEKDTNVADRNQICKGNIYAMEINLQANLWKSFLYSNVALYLPDSYKYTPANVTLPTNTNTYEYMNGRVVAPSLVDAYINIGARWSLDPMDNVNPFNHHRNAGLRYRSMLLGNGRYVPFHIQVPQKFFAIKNLLLLPGSYTYEWNFRKDVNMILQSSLGNDLRVDGASVRFDSVNLYATFFPMAHNTASTLEAMLRNDTNDQSFNDYLSAANMLYPIPAKATNVPISIPSRNWAAFRGWSFTRLKTKETPSLGSGFDPYFVYSGSIPYLDGTFYLNHTFKKVSIMFDSSVSWPGNDRLLTPNEFEIKRSVDGEGYNVAQCNMTKDWFLVQMLSHYNIGYQGFHVPEGYKDRMYSFFRNFQPMSRQVVDEINYKDYKAVTLPFQHNNSGFTGYLAPTMRQGQPYPANFPYPLIGQTAVPSVTQKKFLCDRVMWRIPFSSNFMSMGALTDLGQNMLYANSAHALDMTFEVDPMDEPTLLYLLFEVFDVVRVHQPHRGVIEAVYLRTPFSAGNATT
modifications: Source, isoform and limits not given; soluble extracellular domain assumed; N/O-glycosylated; amine-coupled to CM5 chip
As to B5, the affinity with CD46, expressed as Kd, was 6730 nM.
For the molecule B6, the values for the Kd in the test with HAdV-D37 hexon and with HAdV-D56 fiber knob were 3090 nM and 150 nM, respectively.

B7: CD46 (receptor)
chain: CEEPPTFEAMELIGKPKPYYEIGERVDYKCKKGYFYIPPLATHTICDRNHTWLPVSDDACYRETCPYIRDPLNGQAVPANGTYEFGYQMHFICNEGYYLIGEEILYCELKGSVAIWSGKPPICEKVLCTPPPKIKNGKHTFSEVEVFEYLDAVTYSCDPAPGPDPFSLIGESTIYCGDNSVWSRAAPECKVVKCRFPVVENGKQISGFGKKFYYKATVMFECDKGFYLDGSDTIVCDSNSTWDPPVPKCLKVLPPSSTKPPALSHSVSTSSTTKSPASSASGPRPTYKPPVSNYPGYPKPEEGILDSLDVWVIAVIVIAIVVGVAVICVVPYRYLQRRKKKGTYLTDETHREVKFTSL
Consider B7, for which the values for the Kd in the test with HAdV-D113 hexon, with HAdV-D113 fiber knob and in the test with HAdV-B11 hexon were 4190 nM, 130 nM and 210 nM, respectively.
